Results on five molecules are retold here after PMC7171142 (Scientific Reports, 2020).

Experiment [1] addresses Recombinant Ecto-PfRipr (D21-N1086), C-terminal His-tag (P. falciparum 3D7) (UniProt O97302). As to the kind of experiment: SPR; single-cycle kinetics, Biacore X100; recombinant PfRipr immobilised on a CM5 chip as ligand; analytes at 3.13, 6.25, 12.5, 25 and 50 nM, contact time 120 s, dissociation 180 s, last dissociation 3000 s. On the technique in general: SPR reads the build-up and loss of mass on a sensor chip optically.

The target in experiment [2] is T1, Recombinant Ecto-PfRipr (D21-N1086), C-terminal His-tag (P. falciparum 3D7, UniProt O97302 21-1086). The experiment is described as above. Particulars: both partners purified.
T1 sequence (O97302 21-1086): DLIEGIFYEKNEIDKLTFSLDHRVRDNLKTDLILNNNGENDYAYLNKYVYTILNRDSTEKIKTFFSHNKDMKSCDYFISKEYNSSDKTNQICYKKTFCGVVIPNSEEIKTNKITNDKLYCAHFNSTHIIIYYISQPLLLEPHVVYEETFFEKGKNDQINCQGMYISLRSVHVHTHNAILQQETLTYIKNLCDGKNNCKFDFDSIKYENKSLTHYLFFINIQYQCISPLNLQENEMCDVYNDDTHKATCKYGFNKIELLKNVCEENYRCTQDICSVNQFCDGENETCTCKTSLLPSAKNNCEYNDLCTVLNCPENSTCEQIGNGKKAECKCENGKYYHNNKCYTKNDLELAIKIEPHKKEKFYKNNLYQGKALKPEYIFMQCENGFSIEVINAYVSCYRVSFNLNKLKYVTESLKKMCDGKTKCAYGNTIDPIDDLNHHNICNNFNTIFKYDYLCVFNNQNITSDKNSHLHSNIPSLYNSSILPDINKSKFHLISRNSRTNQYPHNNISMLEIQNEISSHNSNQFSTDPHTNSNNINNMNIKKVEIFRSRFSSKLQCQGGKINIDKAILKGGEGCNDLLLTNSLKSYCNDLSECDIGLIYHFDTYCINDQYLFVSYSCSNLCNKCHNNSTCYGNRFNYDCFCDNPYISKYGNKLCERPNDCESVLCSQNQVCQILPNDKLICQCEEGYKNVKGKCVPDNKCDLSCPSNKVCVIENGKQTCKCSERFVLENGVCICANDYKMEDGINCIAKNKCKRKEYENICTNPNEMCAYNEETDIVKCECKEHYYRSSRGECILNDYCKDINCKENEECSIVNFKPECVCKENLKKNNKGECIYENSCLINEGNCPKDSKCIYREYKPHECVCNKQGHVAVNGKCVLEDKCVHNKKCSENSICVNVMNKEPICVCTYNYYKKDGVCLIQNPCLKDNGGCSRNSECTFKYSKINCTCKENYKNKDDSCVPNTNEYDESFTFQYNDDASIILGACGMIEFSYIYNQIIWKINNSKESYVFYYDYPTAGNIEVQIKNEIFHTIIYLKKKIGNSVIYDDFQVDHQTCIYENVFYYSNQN
Experiment [3] deals with T1, Recombinant Ecto-PfRipr (D21-N1086), …. As to the kind of experiment: SPR; single-cycle kinetics, Biacore X100; […], dissociation 180 s, […]. The note with it: both partners purified.

Chain of Recombinant Ecto-PfRipr (D21-N1086), C-terminal His-tag (P. falciparum 3D7) (O97302 21-1086): as above

In general, Kd refers to a measure of binding affinity in units of concentration. As usually defined, the koff is a measure of how fast the partners let go of each other. Usually kon stands for the rate constant with which the complex forms. As for “GST-fused recombinant NPTN (Q29-L221) with C-terminal His-tag (domain or fragment)”, in experiment [1], the Kd is 24 nM, the dissociation rate constant (koff) worked out at 6.5e-05 s⁻¹ and the kon was 2700 M⁻¹ s⁻¹.

B1: Recombinant Rh5 (E26-Q526), released from GST by TEV protease (domain or fragment)
chain: ENAIKKTKNQENNLTLLPIKSTEEEKDDIKNGKDIKKEIDNDKENIKTNNAKDHSTYIKSYLNTNVNDGLKYLFIPSHNSFIKKYSVFNQINDGMLLNEKNDVKNNEDYKNVDYKNVNFLQYHFKELSNYNIANSIDILQEKEGHLDFVIIPHYTFLDYYKHLSYNSIYHKSSTYGKCIAVDAFIKKINETYDKVKSKCNDIKNDLIATIKKLEHPYDINNKNDDSYRYDISEEIDDKSEETDDETEEVEDSIQDTDSNHTPSNKKKNDLMNRTFKKMMDEYNTKKKKLIKCIKNHENDFNKICMDMKNYGTNLFEQLSCYNNNFCNTNGIRYHYDEYIHKLILSVKSKNLNKDLSDMTNILQQSELLLTNLNKKMGSYIYIDTIKFIHKEMKHIFNRIEYHTKIINDKTKIIQDKIKLNIWRTFQKDELLKRILDMSNEYSLFITSDHLRQMLYNTFYSKEKHLNNIFHHLIYVLQMKFNDVPIKMEYFQTYKKNKPLTQ
As for B1, in experiment [2], the Kd amounted to 0.48 nM, the koff came to 2.9e-05 s⁻¹ and the on-rate (kon) was found to be 61000 M⁻¹ s⁻¹.

B2: GST-fused recombinant AMIGO2 (M1-N397) with C-terminal His-tag (domain or fragment, human, UniProt Q86SJ2 1-397, looked up)
chain: MSLRVHTLPTLLGAVVRPGCRELLCLLMITVTVGPGASGVCPTACICATDIVSCTNKNLSKVPGNLFRLIKRLDLSYNRIGLLDSEWIPVSFAKLNTLILRHNNITSISTGSFSTTPNLKCLDLSSNKLKTVKNAVFQELKVLEVLLLYNNHISYLDPSAFGGLSQLQKLYLSGNFLTQFPMDLYVGRFKLAELMFLDVSYNRIPSMPMHHINLVPGKQLRGIYLHGNPFVCDCSLYSLLVFWYRRHFSSVMDFKNDYTCRLWSDSRHSRQVLLLQDSFMNCSDSIINGSFRALGFIHEAQVGERLMVHCDSKTGNANTDFIWVGPDNRLLEPDKEMENFYVFHNGSLVIESPRFEDAGVYSCIAMNKQRLLNETVDVTINVSNFTVSRSHAHEAFN
On to B2, for which, in experiment [2], the Kd was 0.16 nM, the koff amounted to 2e-05 s⁻¹ and the kon worked out at 120000 M⁻¹ s⁻¹.

B3: GST-fused recombinant CyRPA (N27-E362) with C-terminal His-tag (domain or fragment)
chain: NCDSRHVFIRTELSFIKNNVPCIRDMFFIYKRELYNICLDDLKGEEDETHIYVQKKVKDSWITLNDLFKETDLTGRPHIFAYVDVEEIIILLCEDEEFSNRKKDMTCHRFYSNDGKEYNNSEITISDYILKDKLLSSYVSLPLKIENREYFLICGVSPYKFKDDNKKDDILCMASHDKGETWGTKIVIKYDNYKLGVQYFFLRPYISKNDLSFHFYVGDNINNVKNVNFIECTHEKDLEFVCSNRDFLKDNKVLQDVSTLNDEYIVSYGNDNNFAECYIFFNNENSILIKPEKYGNTTAGCYGGTFVKIDENRTLFIYSSSQGIYNIHTIYYANYE
As for B3, in experiment [3], the dissociation constant (Kd) came to 69 nM, the koff came to 0.00016 s⁻¹ and the kon was determined as 2400 M⁻¹ s⁻¹.

B4: GST-fused recombinant SEMA7A (Q45-H666) with C-terminal His-tag (domain or fragment, human, UniProt O75326 45-666, looked up)
chain: QGHLRSGPRIFAVWKGHVGQDRVDFGQTEPHTVLFHEPGSSSVWVGGRGKVYLFDFPEGKNASVRTVNIGSTKGSCLDKRDCENYITLLERRSEGLLACGTNARHPSCWNLVNGTVVPLGEMRGYAPFSPDENSLVLFEGDEVYSTIRKQEYNGKIPRFRRIRGESELYTSDTVMQNPQFIKATIVHQDQAYDDKIYYFFREDNPDKNPEAPLNVSRVAQLCRGDQGGESSLSVSKWNTFLKAMLVCSDAATNKNFNRLQDVFLLPDPSGQWRDTRVYGVFSNPWNYSAVCVYSLGDIDKVFRTSSLKGYHSSLPNPRPGKCLPDQQPIPTETFQVADRHPEVAQRVEPMGPLKTPLFHSKYHYQKVAVHRMQASHGETFHVLYLTTDRGTIHKVVEPGEQEHSFAFNIMEIQPFRRAAAIQTMSLDAERRKLYVSSQWEVSQVPLDLCEVYGGGCHGCLMSRDPYCGWDQGRCISIYSSERSVLQSINPAEPHKECPNPKPDKAPLQKVSLAPNSRYYLSCPMESRHATYSWRHKENVEQSCEPGHQSPNCILFIENLTAQQYGHYFCEAQEGSYFREAQHWQLLPEDGIMAEHLLGHACALAASLWLGVLPTLTLGLLVH
In the case of B4, in experiment [2], the Kd turned out to be 0.94 nM, the koff amounted to 4.1e-05 s⁻¹ and the association rate constant (kon) was determined as 44000 M⁻¹ s⁻¹.
